Three molecules from publication PMC6614797 can be followed below.

Read-outs that look alike come from different tables or passages of the source.

Assay in all cases: analytical size exclusion chromatography
A general note: Size exclusion chromatography separates by hydrodynamic size, large species first.

Data set [1] deals with NusB;NusEdelta (S10 lacking the ribosome binding loop) (Escherichia coli;Escherichia coli, UniProt P0A780;P0A7R5 1-139;1-45+68-103, |internal_change).
Data set [2] addresses T1, SuhB (Escherichia coli, UniProt P0ADG4 1-267).
For data set [3], the target named is RNA polymerase;NusA;NusB;NusEdelta (S10 lacking the ribosome binding loop);NusG;SuhB (Escherichia coli;Escherichia …, UniProt P0A7Z4;P0A8V2;P0A8T7;P0A800;P0AFF6;P0A780;P0A7R5;P0AFG0;P0ADG4 …, |||internal_change||).
The target in data set [4] is T1, SuhB. This is another data set of the same source.

B1: rrnG RNA (structured_RNA)
RNA: GGGCCGCGCCGCUGAGAAAAAGCGAAGCGGCACUGCUCUUUAACAAUUUAUCAGACAAUCUGUGUGGG
As for B1, the binding result in data set [1] and in data set [2] was “binds” throughout.

B2: rrnG-EC scaffold (T-DNA, NT-DNA, rrnG RNA) (mixed)
DNA 1: ATCCGTATCTTCGAGTGCCCACACAGATTGTCTCATAAATTGTTAAAGAGCAGTGCCGC
DNA 2: GCGGCACTGCTCTTTAACAATTTATCAGACTTGTCCACGCTCGTCTCGAAGATACGGAT
RNA: B1 RNA
Regarding B2, the binding result in data set [3] is “binds”.

On to UUUUUGAGUCUGCGGCGCGCG (ssRNA) [random RNA], for which the binding result in data set [4] was “no binding”.
